Biological target: wild-type human full-length alpha-synuclein (human, UniProt P37840 1-140)
Assay: NMR titration; 1H-15N-BEST-TROSY chemical shift perturbation; 40 μM 15N-labelled aSYN fixed, peptide titrated; 20 mM phosphate buffer, pH 7.0, 10% 2H2O, 298 K
Details: both partners purified

B1: JMD long peptide (peptide)
peptide: KLKRKYWWKNLKMM
notes: VAMP2, full length of the juxtamembrane (JM) domain, aa 83-96; also called native JMD long peptide; JM-domain of VAMP2, aa 83-96; source: synthetic peptide (custom synthesis, Proteogenix)
binding result: binds
